From article PMC7539298

How the values were obtained:
[1] = biological target: Tyr10 (UniProt position 681, …); assay: other (circular dichroism); conditions: 25 °C; none stated; titrated with concentrated NaOH; Cu(II)-bound: 0.9 mM Cu(II), 1.0 mM peptide
[2] = biological target: Asp7 (UniProt position 678, …); assay: potentiometry; conditions: 25 °C, 0.1 M (KNO3), none, 1.0 mM peptide in 4 mM HNO3/96 mM KNO3, under argon
[3] = biological target: Tyr10 (UniProt position 681, …); assay: potentiometry; conditions: 25 °C; 0.1 M (KNO3); none; 1.0 mM peptide in 4 mM HNO3/96 mM KNO3, under argon; apo peptide (no metal)
[4] = biological target: Glu11 (UniProt position 682, …); assay: potentiometry; conditions: 25 °C, 0.1 M (KNO3), none, 1.0 mM peptide in 4 mM HNO3/96 mM KNO3, under argon
[5] = biological target: Nterm5 (UniProt position 676, …); assay: potentiometry; conditions: 25 °C; 0.1 M (KNO3); none; 1.0 mM peptide in 4 mM HNO3/96 mM KNO3, under argon; apo peptide (no metal)
[6] = biological target: His6 (UniProt position 677, …); assay: potentiometry; conditions: 25 °C; 0.1 M (KNO3); none; 1.0 mM peptide in 4 mM HNO3/96 mM KNO3, under argon; apo peptide (no metal)
[7] = biological target: Tyr10 (UniProt position 681, …); assay: UV-vis; conditions: 25 °C; none stated; titrated with concentrated NaOH; Cu(II)-bound: 0.9 mM Cu(II), 1.0 mM peptide
[8] = Cu(II)-bound, mononuclear 3N complex (Arg5 N-terminal amine, Arg5-His6 amide N-, His6 imidazole, equatorial H2O), peptide:metal ratios 1:2, 1:1 and 1:0.5

Protein: RHDSGYEV [Amyloid-beta peptide fragment 5-12 (Abeta5-12) (Homo sapiens)]
- pKa [1]: 8.89(3)
- pKa [2, 8]: 3.23
- pKa ([2]; apo peptide (no metal)): 2.73
- pKa [3]: 10.08
- pKa [4, 8]: 4.69
- pKa ([4]; apo peptide (no metal)): 4.37
- pKa [5]: 7.52
- pKa [6]: 6.25
- pKa [7]: 8.95(7)

Protein: RHDSG [Amyloid-beta peptide fragment 5-9 (Abeta5-9) (Homo sapiens)]
- pKa [2, 8]: 3.82
- pKa ([2]; apo peptide (no metal)): 3.17
- pKa [5]: 7.37
- pKa [6]: 6.13

Protein: RHDSGYEVHHQK [Amyloid-beta peptide fragment 5-16 (Abeta5-16) (Homo sapiens)]
- pKa [2, 8]: 3.212
- pKa ([2]; apo peptide (no metal)): 2.48
- pKa [4, 8]: 4.169
- pKa ([4]; apo peptide (no metal)): 3.92
- pKa [5]: 7.60
